Measurements from a protein production outcome set (Wang et al. 2014).

Assay: label from the status in PepcDB records
For “LETYNTCDTPPPLNNLTPYRDDGKEALKFYTDPSYFFDLWKEKMLQDTKDIMKEKRKHRKEKKDNPNRGNVNPRKIKTRKEEWEKMKMGQEF”, the protein production was “failed”.
In the case of “LFGVTSELSKDGRERIYRVEGQLFYASVEDFMAAFDFREALDRVVIDVSRAHIWDISSVQALDMAVLKFRREGAEVRIVGMNEASETMVDRLAIHD”, the protein production is reported as “not failed”.
For “LGEICKAVLVDPSSNLTLDHWADKCGLSRRTLTRLFRRETGQSFSGWRQRVRLLEALARLGAGETVTGVALDVGYDSPSAFAAMFKRELGAAPRHYLR”, the protein production was “failed”.
In the case of “LGKILQGVVVVLSGFQNPFRSELRDKALELGAKYRPDWTRDSTHLICAFANTPKYSQVLGLGGRIVRKEWVLDCH”, the protein production is reported as “failed”.
With “LGNEDFNSVIQQMAQGRQIEYIDIERPSTGGLGFSVVALRSQNLGKVDIFVKDVQPGSVADRDQRLKENDQILAINHTPLDQNISHQQAIALLQQTTGSLRLIVAREPVHTKSST” the protein production was “not failed”.
In the case of “LGVVPEVRDWFTLGDHRFLVMDFLEGRPLNSFFAERHPLLTPDPEPDAVAAYTAWALRIHRAVEQAVHAVHARGIVFNDLHVFNIMVAPDEESVSLLDFEAAAPIEEN”, the protein production is reported as “failed”.
With “LHDTDQQGMFERGSAIVEPRFRSLLQQIGSMLGEIDNRLLVVGHTDAAQYHRAGGFAAMSNWSLSSNRAMAARLHMMQGGLAADSVLQVVGMAERAPLDKQHPLGAVNRRIELLVLTSGQAQA” the protein production was “failed”.
In the case of “LHYVHVGNKKSPNTLLFVHGSGCNLKIFGELEKYLEDYNCILLDLKGHGESKGQCPSTVYGYIDNVANFITNSEVTKHQKNITLIGYSMGGAIVLGVALKKLPNVRKVVSLSGGARFDKLDKDFMEKIYHNQLDNNYLLECIGGIDNPLSEKYFETLEKDPDIMINDLIACKLIDLVDNLKNIDIPVKAIVAKDELLTLVEYSEIIKKEVENSELKIFETGKHFLLVVNAKGVAEEIKNFI”, the protein production is reported as “failed”.
In the case of “LKLTKIIVSEAGASVYSASEIAANEFPDLDVSLRGAVSIARRLQDPLAELVKIEAKSIGVGQYQHDVNQAKLARCLDGVVEDCVNAVGVDINTASAALLSHISGLNDTLAKNIVQFRDEHGAFTNRNQLKNIHRMGEKAFQQAAGFLRIMNGDNALDASCVHPEAYPLVEKIISDKKVSIKEIIGNRELLQSINAEQYVDENFG”, the protein production is reported as “failed”.
With “LLEIKRKGAKRGSQHYSDRTCARCQESLGRLSPKTNTCRGCNHLVCRDCRIQESNGTWRCKVC” the protein production was “not failed”.
In the case of “LLNMKRAETGKALSPLQIQELQYMLEDFSPELIHEALKEAVSQGKANFAYIKVILNRWKQDNLLTVELVRN”, the protein production is reported as “failed”.
With “LNDLKESSNNRKARVLYDYDAANSTELSLLADEVITVFSVVGMDSDWLMGERGNQKGKVPITYLELLN” the protein production was “not failed”.
For “LNTAPIFMPNTVGGYFPGPRTFPGNKKILYNSSTMVKALSRGYVVVSAGLRGRTLTNEKGEFIGKAPAFIIDMKAAIRYIKFNKDNFPGDVNKIITNGTSAGGAISALIGASGNNVFFEKELDEIGAADSSDNIFAVSAYCPIHNLENADAAYEWQFNGINDWHTQKIDIKNGKAEFSPLNGQLNELEKQLSSKLKNQFIEYLNSLRLRNPDGDYLTLNKIGEGNFLDLTKKFLIKSAQTEIEKGNELNNPNFLDIRNGKVVSLKWKAYLRYITRMKKVPAFDDLGLNNPENDLFGDIKIKAKHFTEIGQKYSEKTAKKADPELVTAINPLNYLNNQSNSLIAKHWRIRHGAADRDTSFAVPIILATTLQNMNLDIDFFMPWAKPHSGDYDLIDLFDWIDSLVKEK”, the protein production was “failed”.
With “LPAGLYFVGTPIGSARDITLRALDVLASAEVIAAEDTRSLRHLLDIHGVPLDGRRVLAYHDHSGAGAQARLLEALAEGKSVAYASEAGMPLIADPGFELSRAAAEAGHMVTC” the protein production was “not failed”.
With “LPAHSWLGSFQAAGFDLVGQAWLPEQPSATLFLLHGYYDHMGLYRHVIEWALKQGFAVISCDLPGHGLSSGERASITDFAVYQQVLEALFEQAHTLQLPHPWHLCGQSTGGAIAVDHLLHQGARSPVDGQVILLAPLVRPSSWRWSKFSYCVLRHFVNGIERRFSENTNDPAFLPFLEADPLQPRRLPTAWVGALIAWVKRIEAAPRSARRPLIVQGEADGTVDWPHNLEVLKAKFAEPQILMLPEARHHLANELPGIRQRYFDFIDQRLG” the protein production was “failed”.
For “LQQQEEETYADACDEFLDPIMSTLMCDPVVLPSSRVTVDRSTIARHLLSDQTDPFNRSPLTMDQIRPNTELKEKIQRWLAERKQQ”, the protein production was “not failed”.
In the case of “LRASEESFRQAFEYAPSGMAIAEMGGDQHGRILRTNDALCRLLGRPASAMRRYSFSDLVHPEDIGTLLRTSAEGGRAELRLGRRDGTYVWVSLRNSVVADAADGPRFLLTHVEDIEERKRRELQLAHRASHDSLTGLPNSAELRSRLSARLCRRPQSAELGAVESLDAAYAHGQYTTEHPAAYDTSGHGEQPGHGHGFDFTQGPGPYDAFDHHVHTVAPEGQTDDGTKGLAVLFCDLDGFKSINDRFGH”, the protein production is reported as “failed”.
With “LSHGDFELAVPGGPVAAYYAAPAGREQLPIVLVVQEIFGLHEHIKDVCRRLAHDGYLAVSVNLYQRQGDASRYDNIPGLVAELVSKVPDEQVHADLDASLAWAAAHGGDGARVGVTGFCWGGRTTWMYAARNPAVKAGVAWYGRLSSGHGPLIKQVPLDVAGSLHAPVLGLYGGKDESIPLDDVRAMEARLQQGGAPAQASRIVVYPQAGHAFLADYRPSYRAADAQDGWRRMLDWFALYL” the protein production was “failed”.
With “LTGFQNYLNSIIDSMPSALIALDEQLYVTQWNQEASALSGTRLDEALNQPIFLAFEPLKPFLPQLKETVEQHTVTKVERVTWFKDEEPKHYALTFYPLMGGAGRGVVIRIDDITQRLSLEEMMVQSEKMLSVGGLAAGMAHEINNPLGAI” the protein production was “failed”.
In the case of “LTLRSVFQPIFDKQHQVVGAEALVRIFTQHHTQIRPDLFFHSETFADDDKLNVERLSRAIHIRNFSLSPYRDTRLFLNVLPVAGEQFAYCDISSTLLATRLAELNIPHHRVVMELVEIESGDEGMLQMATEKLVANGFQIAIDDFGCKASTPERVAMLRPNIIKLDRQLLLDFMAGDCCGLLAGVQLAQKTGAHTVVEGIETAEQLAAMQKLDINMYQGYYLALP”, the protein production is reported as “failed”.
With “LTTAGYYAAVDWGTSSFRLWIIGEDGAVLAERRSAEGMTTAAKTGFHTILDGHLAAVSAPAHLPIIICGMAGARQGWKEAGYIETPAALAEIAGRATAIPDVDRDIRILPGLAQRDRRHPDVMRGEETQLLGAAAHLGAGSHLVCMPGTHSKWVRLADDRVEGFSTFMTGELFDTIARHTILSHAVAEADTFAAGSAAFTDAVSRTRENPALATNLLFSVRAGQLLHGTAAADARAQLSGTLIGLEIAGALAGSGSVDGVCLVGSGGLGTLYRTALESQGLNVRAVDADEAVRAGLSAAARAIWPL” the protein production was “not failed”.
In the case of “LTVHYDLQLYKINYKTQSPDGNLTIASGLVAMPIHPVGQVGIISYQHGTRFERNDVPSRNNEKNYIYLAAYGNSAGYMTVMPDYLGLGDNELTLHPYVQAETLASSSIDMLFAAKELANRLHYPISDKLYLAGYSEGGFSTIVMFEMLAKEYPDLPVSAVAPGSAPYGWEETMHFVMLEPGPRATAYLAYFFYSLQTYKSYWSGFDEIFAPPYNTLIPELMDGYHAVDEILQALPQDPLLIFQPKFSNGIISKTDRNTEILKINFNHYDFKPTAPLLLVGTKGDRDVPYAGAEMAYHSFRKYSDFVWIKSVSDALDHVQAHPFVLKEQVDFFKQFERQE”, the protein production is reported as “not failed”.
With “LTVTVTHSNEKHDLHVTSQQGSSEPVVQDLAQVVEEVIGVPQSFQKLIFKGKSLKEMETPLSALGIQDGCRVMLIGKKN” the protein production was “not failed”.
In the case of “LVADASPFAMLEQAPDDLISHYDLTGRLLRVSPAWSRIIGGSVAEAAGRRTWDFIAPEDHPAVAAYYADLLREGAAPSSRLRMRVRHVAGDIRVLESRPMPIRNAEGVVTGFVDIARDITEQIETERRYQLALAQAHEA”, the protein production is reported as “failed”.
In the case of “LVRQEETLRLAIDAADVGTWDHDLETGEVRLSDRCYAMFGVTPGEPVTHETLMPFTHPADVVRVQEAVARALDPAIRADYAIEFRVNGRDDHVERWLSAKGEVSFDNEGRPRRFLGAVVNITERKRAELHLRLLVNELNHRVKNSLATIQAIAAQSFNGQRDMDEAKEAFSNRIVALAEAHDLLTRENWEGAEMHDVAARVAALHGGDARFELSGVAIRLSPKTALSLSMALHELATNAVKYGALSVPEGVVRIVWDMAPEP”, the protein production is reported as “failed”.
With “LYATLSGVSLALADSADRRILLQTVCDVCVREAGFEMAWVGLLDADEKRVEVAALSRGERASMPGELPGHAEDAQAPGPVSRALRSRAAQVSNDAQSDPALKPWHGALSRQGIRSLLVVPLLVRQQVAGALALHAGEEGFFDQSRRALFELMAREIGRGLERHDALERSHRAETELAFLAQ” the protein production was “failed”.
For “LYPILIGIYASVIPFYIALYSTFRLLSYIDENKAFSQISVKALNNIKHCTIAISILYMATMPFVYLLADKDDAPGLIIIGMVPIFASLVISVFSAVLQRLLQEAIDIKSENDLTV”, the protein production was “failed”.
In the case of “MAAEHGLILDFTTVLGASALGGYLANRLRQPVLLGYLVTGLALGPYGLKLLSDVPRIQSLASIGVAFLLFALGVEFSLTELRRVKNIAINGSLLQIGLTTALVAFLTITLGWVDNLTQGIFLGVVLSLSSTAVVLKTLGERGETNTLHGQVMLAILIAQDLALGLILAFLPVLNQPERLVWALGIALLKVLLFLALAIALGRWIVPKLISNVAATESTELFVLTVISLCLSVALVTAKLGLSIEMGAFVAGLMVSEIDHADHALAKVLPLRDTFACLFFASIGMLIDPIALMQNLGLVLGLVTLVMLGKAIVVMPIILKFGYSLKTTILTSLGINQIGEFSFVLALAGLQLQLIPEKTYILLLETTAITLVLTPISLNIAPQLIERLTQIPFFAQSLRQFTEPNILSIPETISGHVVVAGYGRVGQVIVNILLNQGYVVLVIENSEAAIQRLRMQRIPYIFGDADSELVLEKIHLETAKALAIALPDPASSRLLLKRALAIAPKLDVIARSHHDNEIDLLTQMGAKEVVQPEFEAALELSAHLLSTLGEAKSQIDTVISDIRTDRYRSIRPRR”, the protein production is reported as “failed”.
With “MAAHLEEQQELDNFKYFWKTTGKWLFALLILAALGYLGYTVYQNRKVSQNQEAAAVLANIVEKAQSKAPQSEINAELTKLQQSYPHSISAAQATLMAAATEFDAQRYDVAEGHLKWVLSNQKDSLIQALAAQRLGVVLLQQKKYDAALAALDTPVEADFAPLLMETKGDVYAAQGKSQEALKNYGQALEKMPQDSVGRELVQMKLDSLK” the protein production was “failed”.
In the case of “MAAIVLTRNLQLAKHHGSGVVGVLCLRGYSAAAAPPEDGPRPLKTTNPAAMKRGTGGRSSFNGIVATVFGATGFVGRYVCNKLGKSGTQMILPYRGDDSDVIRLKVTGDLGQVLFHFYNLEDPASIRDAVKHSNVVINLVGRDFETKNFKFKDVHVNGAERIARIAREAGVERLIHLSSLNVEANPKDLYVKGGSEWLKSKYEGELRVRDAFPNATIIRPADIYGSEDRFLRYYAHIWRRQFRSMPLWHKGEKTVKQPVYVSDVAQAIINAAKDPDSAGRIYQAVGPKRYQLSELVDWFHRLMRKDQKRWGYMRYDMRWDPTFLLKAKLNSFICPGTPIGGLHPARIEREAVTDKVLTGVPTLEDLGVTLTTMEQQVPWELRPYRAALYYDAELGEFETPSPPKCIEARDELRLFA”, the protein production is reported as “failed”.
For “MAAKLCIPSSSFSHRTNDSITSSSSSYSSLLALPQFFCPPSPLGFPQFKLHAKLGGGDGEVKPKDKKKFITKDEEPEQYWQSVGEREGENPMKTPLPYIIIFGMSTPFVILAIAFANGWIKVPIR”, the protein production was “failed”.
With “MAAKTRTFRAAADAWLKAKEEKGLAPSTLNKIRTYLDKDILPALGDKPLDEITRTDCAELQASIEARDAHNVAEKCRTWINQIFGRAIGLGLTENDPGSRLRDIAAQAPKTQLEHHHHHH” the protein production was “failed”.
For “MAALAIIQSLNTSSYPIDIQRLKPKKMPEEPGPARNKFRSDFIVEIALIVAVAVYLVMAQGQVVGENLSFTVTGAALMALATYWTLHTIRDGLEVIALRLRPGK”, the protein production was “failed”.
